assay: soluble on expression in E. coli; label from the status in PepcDB or PDB records

Row | Sequence | soluble on expression in E. coli
1 | MSLEAKEVYFEQRGDIGYIVINNAPENMITLSLLEEFSNIVENSIINSKIKGIIITGKGRHFSSGTDIGKLKQTILKTAYIKENNSLVECSEFKRYIDALSSLYSINIPVISAINGLCIGSGFEIALHSHIRICSKGSIVGSPESTFGLMPGLGGISRYVQLCGLGKALELVLSGDLLSVNEALEIGIIDKIVKKNEISDYCNRLMEYILKNEMIYSKSKINSYIKLCDEGHHHHHH | soluble
2 | MDYSSSLPQSDRSTSTAAGHWVLARAGKRVLRPGGLKLTKRMLSAADMQGKEIVEFAPGLGRTAQLIVTEGVSSYVGVDQDSAAVARVEAIVKPHGGTVINAKAHDTGLSGESAEVVVGEAMLTMQGEKAKAEIVAEAFRLLKPGGYYAIHELGLTPNDIDPELADGLRKQLAQTIRVNARPLTENEWRTVLTNAGFEVEWISFAPMALLSPKRNLADEGFLGVVRIIRNLIRDKALRARVFQMRSTFNKYRDHLTGIAIVAKKPSN | not soluble
3 | MPSLLSSRIRNAEFAKKIVTDPAKLVPYFKNGDYVGWSGFTGVGYPKMIPNALARHVEENNLQGKLRFKLFVGASGGADTECKWAELNMIERRCPHQVGKPISKGINSGRIQFFDKHLSMFPQDLLYGYYTRNRESNTIDTAIIEATAITEDGGIVPGASVGASPELMQLAEKIIIEVNTAIPSFEGLHDIVEIPNPPHRTPININRVDDRIGKPYIKVDPKKVIGIVEADYGDITCANSPQDETSQAIAGHLVDFFHHEVSVGRLPKNLHPLQSGIGNIANAIIGGLAHSPFKDLEVWTEVLQDTFLPLFDSEKLRFATATSTRFSPQGFEKFYSNYDYYKERILLRPQVISNHPEIIRRLGCIAMNTPVEADIYAHANSTNVLGSRMLNGLGGSADFLRNAKLSIMHTPSVRPSKKDPTGITCIVPMATHVDQTEHDLDILVTEQGLADLRGLSPTERAREVIDKCAHPDYKPLLREYFDIAENYCLARGAGHEPHILANAFKMQLNLLEKGTMKIDHW | soluble
4 | MSNSAKLIDVITKVALPIGIIASGIQYSMYDVKGGSRGVIFDRINGVKQQVVGEGTHFLVPWLQKAIIYDVRTKPKSIATNTGTKDLQMVSLTLRVLHRPEVLQLPAIYQNLGLDYDERVLPSIGNEVLKSIVAQFDAAELITQREIISQKIRKELSTRANEFGIKLEDVSITHMTFGPEFTKAVEQKQIAQQDAERAKFLVEKAEQERQASVIRAEGEAESAEFISKALAKVGDGLLLIRRLEASKDIAQTLANSSNVVYLPSQHSGGGNSESSGSPNSLLLNIGR | not soluble
5 | MMMFLPPEVVREIHEERVKKALENLKAIELEKELLEKVVKEEKKVSSRRRRREKETVEV | not soluble
6 | MDNCNAWDKLLSQNESTINSTETATITAIIYSPSSKTLHQFINICFPEGSNSILDTTLINYATIGWTNDLKENYSVDVYTLIRNTDDALDLLKPFLQEHSSKVRWLILLDWTLNDQKLWLNELSYAFNKIKQLNDDNEFSVWCLNSGEILNLQRHTTVWQSVHIDFILQTLRSFCYFNDSSLFYICEDHTEEKREEAQRLKYQELLKHFCEDRDMKDHIEMVKRSEILIPKGCDSIGLIKTVDERFEPTEVKEQHFLARYMDFIPTIDKIREDRKTTSGIDLDKLYPLEVFKVNIQEELGKMFAKYRENSRI | soluble
7 | MSTQNEESEESARRPQSISHLARVEVEEPARKMRLMFGEKQVVFIRSDGLRSRVVRENMKKKLSQEIEKKEDLDTDSPNLTKVIDDVASGATGSSSLPSSSTESYSTSSSSSSSSSDLNSAYSSTSEPQATSSSAPESSTNSSASPEIKGNRNYHPPREFHGASTMVSHKRRWTYQTACDINAAEQSGDSEMYYIAHPLLPMPRGSGRNEVSTATRMNYAGQQIDNRKFRGQSKAVNQFANTESVTCEKCGMRYFFESIQMQERISYLLPPNEEDLPIALFECPVCKITTKVK | not soluble
8 | MSLPRFSNVSYEQYWALREQSDEWLEYIDGAVYMAPSPSIKHQLVSSNLHTELGLYFRGKPCNVFAAPTDIELASDKFPDRKVVIPDLSVICDSKGFTETKYVGVPTLIVEILSPSNQAHDLVTKFNLYMAYGVKEYWIVNPMKEAITVYTLNEEGLYEQADVKAGTGVVQSACFPRLEVALEDVFR | not soluble
9 | MKWKVLQLKTQEIKVNNLAKSSLHQPGSLVLRNRIRNNQTISNHQKVYITNLHKDKLKLNNLLRLMKSTNRHMPFRNLVLATGQELALLHNKRKRRKTLPLALFYSHLILL | not soluble
10 | MNYQLVKQVRENNPLRKSFIDLAVKTFDLSFEEWYQQGYWTDAYIPYAFVERNKVIANASANIIDLRWQGEPRRYIQIGTVMTEPDHRNKGLAGQLIHHILQDWQQEADAFFLFANPTTVDFYPKFGFTRSEEYQYIMPVSPRAGDFRKLDMDSPDDVALLRHYYEKSNPFSPLRVEHNFGLLMFYCSAFMKHFVYYSAKNEAVVIAMQNGPVLICFDLFCDVGKSLSTLVNELADDHVYQAILGFTPSEDRLGEYEKIEGEDILFVYDQKENLFKDRKLMFPLLAHA | not soluble
11 | MRILNVSLLVLASSLVAFVECGRDFYKILGVAKNANANQIKKAYRKLAKELHPDRNQDDEMANEKFQDLSSAYEVLSDKEKRAMYDRHGEEGVAKMGGGGGGGHDPFSSFFGDFFGGGGGHGGEEGTPKGADVTIDLFVTLEEVYNGHFVEIKRKKAVYKQTSGTRQCNCRHEMRTEQMGQGRFQMFQVKVCDECPNVKLVQENKVLEVEVEVGADNGHQQIFHGEGEPHIEGDPGDLKFKIRIQKHPR | not soluble
12 | MLKHDLDYLELLSESFPTATEAATEIINLEAILNLPKGTEHFLADIHGEYEAFIHVLKNASGSIRRKVDEVFGGQLRQNQKRELCTLIYYPREKLELVKQSDERMEDWYMVTLNQLIKVCQKAAEKYTRSKVRKTLPPKYSYIIQELLHEDGVNPNKSAYISSIFSSIISTGCADDFIIAISETIQRLVIDHLHVVGDVFDRGPGAHIIMDTLMKYHHFDIQWGNHDMLWMGAAVGNASCMANVVRIALRYANLDTLESGYGINLLPLARFAMDTYADDPCTVFKPKLAQADQTYDDKSVYLISQMHKAISIIQFKLEHQIIARHPEYKMDNRDLFHLVNFTDGTIKLSSGVYPMLDMNFPTVDPADPYALTEQEQNIVDRLMGCFMRSEKLQNHLKCLYRHGSMYLTYNMNLLYHASIPLNKDKSLKKVRVGDKTYAGRELLDKVEEMIRTAYVAPEKSDQRLAAVDYMWYLWCGPDSPLFDKAMMTTFERYFIEDKATHHEEKGYYYVYRQEKAVCEMILKEFGLEGPDTHIINGHVPVKAKKGELPIGAEGKLMLIDGGFSKAYQSSTGIAGYTLIFNSQGLHLVQHEPFSSTRKAIEEMEDIKSITVVREVTSHRMLVKDTDNGHLLSKQVENLKKLLQAYSYGLIKERKK | not soluble
13 | MAMSFIKPIYQDINSILIGQKVKRPKSGTLSGHAAGEPFEKLVYKFLKENLSDLTFKQYEYLNDLFMKNPAIIGHEARYKLFNSPTLLFLLSRGKAATENWSIENLFEEKQNDTADILLVKDQFYELLDVKTRNISKSAQAPAIISAYKLAQTCAKMIDNKEFDLFDINYLEVDWELNGEDLVCVSTSFAELFKSEPSELYINWAAAMQIQFHVRDLDQGFNGTREEWAKSYLKHFVTQAEQRAISMIDKFVKPFKKYILRSRELVDPNSVQARLQDVDGTIDTRSKLAAAQLYTRASQPELAPEDPEDLEHHHHHH | soluble
14 | MAHHHHHHMKNFASWALRLHQDGISEERPQLGKQLYDKVCTVQTVKDYPGLRFKDMKEAIGFPIKRDDMFLPASMKEKRQQQQQIGVPPRRSQCFTCGQLGHYSNTCGVFKHKLNTRQKSDIQFKKQ | not soluble
15 | MGSDKIHHHHHHLEQQAIVANNLANASTTGFRAQLATFRAVPMSFGDGSSINDNTTRTFVLSSTPGADYTPGPIQQTGNPLDVAIQGPGWLAVQTADGGEAYTRAGNLHIDENGQLVNATNQVVLGNGGPVSVPPGAEITIGKDGTVSALTPGDPPTAVVTVDQLKLVNPDPQTMTRGDDGLFRTGDGNPADADPTVTLAPASLEGSNVNPVSAMVSMITNARQFQMQTKLLESADKNDQSANQLLSFS | not soluble
16 | MESVKCFDMITAFFDLSDSVHVVRKNGGLAFGKTWLGNFFVLVREVKILRATTEKFSLVNLRKLEPHSGQFRNQIREESAYRHPFLRIVVKVILAKRLRPLPYLTSKSK | not soluble
17 | MAHSGDNHSSEFCMLRSLSASIGADPLLVQGAGGNTSIKQAGVLWIKASGTWLKNARDDEIMVPVALAPLLDAVSHRSPAAEAAGQFTLADLNPRQLRPSIETTVHALLPQKIVVHVHCVETISIAVQANAEALLEGRLRGLDWAFVPYRRPGLPLAQAIAERLKPATNVLVLGNHGLVVAADTVAEAALLLQRVTGLLARQPRPAPPPDLDALLRLAAGSDYRLPASTAAHAVATDLASCRIAASGSLYPDHVIFLGVGSVIAGPGENAAAVVARTAAAPTSILFPGKGVLMRREANAGAEAMARCLADVVARVDGAARVNYLSPKENAELLNWDAEKYRQQLNREGATLQLEHHHHHH | not soluble
18 | MGGSVDFERWFKGPAAIYGGIEYQTPYQPLRLKVEYDSNDYSQDFPVTRGNVDMTQHTPWNFGVLYGLGDWGDIKVSYQRGDTLTLGVNLTTNFNDMKAIWRDEPITAYDESSNQSIDEVDWQRVNQQLNGNAGYEDNRIYADDDSVTLVATQTKYRDSDEAHDRASRIFANHVPETISTYRIIETNQSMPVSETLIDAAQYKKVANNEYFDAKVADASQTDEVTYSPSEHSLKSDNLDRWDYSVSPTLSQSIGSAESFYLYAVGINTAGSVWLTDKVQASGSLYFNLFDNYDKFNYITPPDGTSVPRVRTMFRAYVHENPVRMNNLQLTWFEEYGAGFYSQMYAGYLESMFGGIGSEVMYRPLNSNWAFGIDATYIKQRTPGDWFGFYEQDHQEGGDYGRDYTVVSSGVTGFATAYYAPQWSFLKNTLLKVGVGQFLAGDKGTRIDFSKQFDSGVIAGAYASFTDLSAEEFGEGSYTKGFYISIPFDIMTVKPSKNRANFNWQPLTRDGGQMLNKQHDLYELTDERSPWFTRKGLLEHHHHHH | not soluble
19 | MGSDKIHHHHHHMAERFRPLAMAGLAALALVLAGCGDTLESFGGPTMGSTYSIKYVRGASAPDVQTAKAAVEAILAEVDRQMSTYRDDSLVSRFNALPAQSCMELPLPMLELLRYGGELSEQSQGAFDMTVEPLMNLWGFGPQARVEKVPSAEQIAAVRRDVGHRHLRIDGQRLCKDAAVQLDFDSIAAGYTVDAVGERLKELGVRSYLAEITGELKAEGRKPDGTPWRIAIEAPREGQRVAQQVLALDGYGVSTSGDYRNYFEENGQRYSHTFDPRTGAPIDHHLASVTVIDPSTRNADGLSTLLMVLGPEEGYRFAEKHRLAALFVSRQGNGFDSRTTPRYEQLFGNQGERP | not soluble
20 | MGSDKIHHHHHHMSVETKLTIDKEYVQSFSDARNEPQWFKDIRLKGFELVETLELPKPDKTKITSWNFTNFDHKLPEVSPVASIDELRDEVKGLIGEASDTQNLLVQRDATVVYSKLDEALKAKGVIFTDLLTAVKEHGDLVEKYYMKDAVKVDENRLTALHAALVNGGTFIYVPRNVEIEVPLQSVFWFDTEKAGLFNHVIIVAEDNSSITYVENYASFGSEEAVANIVVEVFAGANAKVSFGAVDNLAAGVTTYVVRRAHVGRDSRVEWALGQMNDGNTVSENTTHLLGDNSWADTKTVSVGRGEQKQNFTTQIFHHGKHSEGYILKHGVMREAATSIFNGISKIEHGATKSHGEQTERVLMLSEKARGDANPILLIDEDDVTAGHAASVGKIDPIQMFYLMSRGISRAEAERLVIHGFLAPVVGQLPIESVKERLVEAIERKVK | not soluble

Source: the DeepSol protein solubility set
